Assay results: patent US20190330320A1 (H LUNDBECK A S, published 2019)
Where a chain is given by its changes, count along the chain named. Names and notes keep the numbering of the source. Values belong to the binder of their own block, whether it stands above or below them.

Key:
[1] = target: Antibody N32S, A101T (hC10-2_N32S_A101T); test: fluid phase peptide inhibition of antibody binding to peptide-coated MSD wells
Method: (§1) FIG. 2. Peptide inhibition assay illustrating apparent affinity hC10-2 and related C10-2 variants.
(§2) Plates were washed 5 times in (PBS, 0.1% BSA, 0.1% NP40) and anti-human total Tau (MSD sulfo tagged 1:50) was added to detect bound antibody which reflect non-inhibited free antibody.

[2] = target: T1, Antibody C10-2 (humanized C10-2); test: as above
T1 construct: also called human C10-2; hC10-2
Method: as §1, §2

[3] = target: T2, Antibody N32S (hC10-2_N32S); test: as above
T2 construct: Variant of humanized C10-2 with light chain N32S; also called hC10-2_N325; C10-2_N325
Method: as §1, §2

[4] = target: T3, pathological hyperphosphorylated tau from human Alzheimer's disease brain (AD-P3 antigens) (human, UniProt P10636 2-758, hyperphosphorylated; phosphoserine at 396); test: binding to tau isolated from diseased and healthy brains
T3 construct: Brain-derived material with a mixture of tau isoforms and aggregates; Also used for tangles stained in AD brain sections and for the S1, S1p and P3 fractions and lysates of AD brain; also called P3 tau isolated from human AD brains
T3 sequence (P10636 other isoform, or with tags, fused parts or gaps limits assumed): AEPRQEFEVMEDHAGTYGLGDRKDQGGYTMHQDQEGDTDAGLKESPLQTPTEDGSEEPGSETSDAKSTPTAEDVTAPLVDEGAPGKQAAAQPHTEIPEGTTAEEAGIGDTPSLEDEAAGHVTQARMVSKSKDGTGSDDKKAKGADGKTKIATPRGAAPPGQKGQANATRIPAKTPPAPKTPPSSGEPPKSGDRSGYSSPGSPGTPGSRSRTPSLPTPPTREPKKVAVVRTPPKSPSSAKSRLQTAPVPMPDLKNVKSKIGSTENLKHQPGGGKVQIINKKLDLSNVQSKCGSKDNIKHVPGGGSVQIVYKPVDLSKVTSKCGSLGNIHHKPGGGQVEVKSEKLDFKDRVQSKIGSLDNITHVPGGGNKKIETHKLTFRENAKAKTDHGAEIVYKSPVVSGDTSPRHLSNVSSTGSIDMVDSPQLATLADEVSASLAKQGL

[5] = target: T4, P-S396 Tau in Alzheimer brain extracts (human, UniProt P10636 2-758, phosphoserine at 396); test: immunodepletion of AD brain extract, P-S396 western blot
T4 construct: Brain-derived; Defined by the western blot signal for P-S396; also called S-P396
T4 sequence (P10636 other isoform, or with tags, fused parts or gaps limits assumed): as above
Method: FIG. 16. Quantification of P-S396 Tau western blot signal after immunodepleting Alzheimers diseased brain extracts using different amounts of hC10-2 variants N32S, N32Q, N32S_A101T, N32Q_ A101T, N32Q_D55E and N32S_ D55E.
Samples were boiled in 1×LDS loading buffer and 100 mM DTT. A volume corresponding to 3 μl of extracts were loaded on a 4-12% Bis-Tris NuPAGE Gel (LifeTech Novex). After electrophoresis, the proteins were blotted over to a ImmobilonFL PVDF membrane ([…], IPFL10100, Millipore). The membrane was blocked with SEA blocking buffer (Prod#37527, Thermo). Tau and P-tau levels were assessed in the samples using Tau5 (Abcam ab80579, 1:2000) mouse C10-2 (1 μg/ml), P-5199/202 (Invitrogen 44768 G, 1:1000), P-5422 (Abcam ab79415, 1:750), human IPN (1 μg/ml). Gapdh and actin were used as loading controls (Abcam ab9484, 1:2000, Sigma A5441, 1:20000). Secondary fluorophore conjugated IgG antibodies was used (IRDye 800CW Goat anti-Human, IRDye 800CW, Goat anti-rabbit, IRDye 680 Goat anti-mouse, LI-COR biosciences) and the signal was quantified using Odyssey CLx and Image studio software (LI-COR biosciences). Quantification of individual bands as well as signal in whole lanes was done and from this sigmoidal dose-response curves were plotted and when possible max effect and EC50 values were estimated.

IC50 [1]: 34 nM
IC50 [2]: 24 nM
IC50 [3]: 50 nM
B1: Ptau (P396) 386-408 peptide (peptide)
peptide: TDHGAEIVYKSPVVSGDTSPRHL
modifications: phosphoserine at 396 (tau numbering)

AD/ctrl (binding to tau from AD brain over tau from healthy control brain) [4]: 3 ratio
B2: HJ8.5 (antibody, V domains shown)
VH: EVKVEESGGGLVQPGGSMKLSCVVSGFTFSNYWVNWVRQSPEKGLEWVAQIRLKSDNYATHYEESVKGRFTISRDDSKSSVYLQMNNLRAEDSGIYYCTNWEDYWGQGTTLTVSS
VL: DIVLTQSPASLAVSLGQRATISCRASQSVSTSRYSYIHWYQQKPGQPPKLLIKYASNLESGVPARFSGSGSGTDFTLNIHPLEEEDAATYYCHHSWEIPLTFGAGTKLELK

percent decrease in the S-P396 signal at 75 ng antibody [5]: ≥ 28%
B4: Antibody N32Q, A101T (hC10-2_N32Q_A101T) (antibody, human IgG1, kappa, V domains shown)
VH: QVQLVQSGAEVVKPGASVKISCKASGYTFTDRTIHWVRQAPGQGLEWIGYIYPGDGSTKYSQKFQGRATLTADTSASTAYMELSSLRSEDTAVYYCARRGTMDYWGQGTSVTVSS
VL: DVQMTQSPSSLSASVGDRVTMTCQASQDTSIQLNWFQQKPGKAPKLLIYGASNLETGVPSRFSGSRSGTDFTLTISSLQPEDMATYYCLQHTYLPFTFGSGTKLEIKR

AD/ctrl (binding to tau from AD brain over tau from healthy control brain) [4]: 3 ratio
B7: IPN002 (antibody, V domains shown)
VH: EVHLVESGGALVKPGGSLKLSCAASGFSFSKYGMSWVRQTPDKRLEWVATISSSGSRTYYPDSVKGQFTISRDNAKNTLYLQMSSLKSEDTAMYYCSISWDGAMDYWGQGTSVTVSS
VL: DVLMTQTPLSLPVSLGDQASISCKSSQSIVHSNGNTYLEWYLQKPGQSPKLLVYKVSNRFSGVPDRFSGSGSGTDFTLKISRVEAEDLGTYYCFQGSLVPWAFGGGTKLEIK

The remaining lines, values behind:

B3: Antibody N32Q (hC10-2_N32Q) (antibody, human IgG1, kappa, V domains shown)
VH: B4 VH with T101A
VL: B4 VL
percent decrease in the S-P396 signal at 75 ng antibody [5]: ≥ 28%

B5: hC10-2 variant N32S_D55E (antibody, human IgG1, kappa, V domains shown)
VH: B4 VH with D55E, T101A
VL: B4 VL with Q32S
notes: Chains are put together from the variant names: light chain N32S and heavy chain D55E; also called C10-2_N32S D55E
percent decrease in the S-P396 signal at 75 ng antibody [5]: ≥ 28%

B6: hC10-2 variant N32Q_D55E (antibody, human IgG1, kappa, V domains shown)
VH: B4 VH with D55E, T101A
VL: B4 VL
notes: Chains are put together from the variant names: light chain N32Q and heavy chain D55E
percent decrease in the S-P396 signal at 75 ng antibody [5]: 16%
